Source: US20170304361A1

Target: Insulin Receptor (Isoform B by the title of Table 1; 'the A isoform of the insulin receptor' by the text) (UniProt P06213)
Assay: competitive displacement of radiolabelled tracer; relative to wild-type human insulin

relative affinity | Substance
42% | GlyA21 derivative of AspB10, ortho-fluoro-PheB24, GluB29-insulin (T-0347) (ligand)
52% | GluA8 derivative of AspB10, 2F-PheB24, LysB28, ProB29-human insulin (T-0338) (ligand)
44% | GluA8, GlyA21 derivative of AspB10, 2F-PheB24, GluB29-human insulin (T-0348) (ligand)
43% | GluA8 derivative of AspB10, ortho-fluoro-PheB24, GluB29-insulin (T-0339) (ligand)
59% | GlyA21 derivative of AspB10, 2F-PheB24, LysB28, ProB29-human insulin (T-0346) (ligand)
